This note sets out measurements from paper PMC9738047 (International Journal of Molecular Sciences, 2022).

This series concerns the molecule itself. The series is described as follows: crystal structure; anti-IL-17A-76 and IL-17A mixed at molar ratio 2.3:1, complex isolated on Superdex G-75; vapor diffusion at 297 K; 2.85 A; molecular replacement with 4HSA and 6QKD.

B1: IL-17A (interleukin-17A) without N-signal sequence, double mutation N68D/C129S (ligand, UniProt Q16552 24-155, looked up)
chain: GITIPRNPGCPNSEDKNFPRTVMVNLNIHNRNTNTNPKRSSDYYDRSTSPWNLHRNEDPERYPSVIWEAKCRHLGCINADGNVDYHMNSVPIQQEILVLRREPPHSPNSFRLEKILVSVGCTCVTPIVHHVA
notes: Dimer in the crystal (monomer in the asymmetric unit, molecules A and A*); also called the cytokine
For B1, the binding result is on record as “binds”.
